From paper PMC7954794, “Protein context shapes the specificity of SH3 domain-mediated interactions in vivo” (Nature Communications, 2021)

Test system: Sla1 PPIs
Experiment: DHFR-PCA of Sla1 SH3-swapped, -shuffled or -deleted baits (Fig. 2E, 4B, 4D, S5A)
Assay type: cell-based, Saccharomyces cerevisiae
From the text: The stuffing of YSC84 SH3 rendered the strain sterile and was therefore not used for this study as the assays require crosses. For genes containing two SH3s (BZZ1 and BEM1), a combination of this first stuffer with a second one ([…]) coding for a highly similar linker ([…]) was used, which allowed targeting each SH3 position independently. The two N-terminal domains of SLA1, which are separated by six nucleotides, were stuffed by a single stuffer. Cells containing pCAS were selected via the G418 resistance cassette from the plasmid on YPD plates (YPD + NAT 100 μg/ml (DHFR F[1,2] selection) + G418 200 µg/mL (Bioshop Canada)). Colonies were randomly selected and grown in YPD media without G418 to allow plasmid loss. The correct insertion of the stuffer was validated by PCR and Sanger sequencing. The SH3-swapped, -shuffled, and -mutated strains were constructed following a second CRISPR–Cas9 editing step with the same procedures. The stuffer sequences were targeted by specific gRNAs (one gRNA per stuffer) and replaced by PCR amplified specific SH3 (with 40 bp homology arms) or libraries of mutated SH3 domains for Deep Mutational Scanning (DMS) with 78 bp flanking homology regions. Validation of the SH3 domain insertions was done as we previously described except for DMS libraries (see below).
The overall DHFR-PCA pipeline is based on Tarassov et al.[43] and the procedures have also been published as a visualized protocol. The screens were performed with robotically manipulated pin tools (BM5-SC1, S&P Robotics Inc.). First, the preys were cherry-picked from 96-well plates to omnitrays in a 384 format on YPD + HPH solid media. Plates were then combined into the 1536 format on YPD + HPH. The array was constituted of 575 preys previously shown to interact physically with at least one SH3-containing protein as reported in BioGRID V3.4.16 along with 40 negative controls. The prey array comprised a border of control strains of two rows and two columns corresponding to the PPI between LSM8-DHFR F[1,2] and CDC39-DHFR F[3]. This double border was used to remove border effects. Preys are present in duplicate at a randomized position in the 1536 array (except for YAL041W which is present four times per array). Baits were crossed with two prey plates, resulting in four independent bait–prey tests for each PPI. Baits were grown in liquid YPD + NAT and then transferred on solid YPD + NAT omnitrays. They were then replicated on YPD + NAT omnitrays in 1536 array format. Mating of DHFR F[1,2] baits with DHFR F[3] preys was done on YPD followed by incubation at 30 °C for 48 h. Two diploid selection steps were performed by replicating the plates on YPD + NAT + HPH and incubating them for 48 h at 30 °C. Pictures were taken at the end of the second diploid selection for quality control. All images were acquired with a EOS Rebel T5i camera (Canon). Finally, the diploid cells were replicated on omnitrays containing solid PCA selection media and incubated for 4 days as a first selection step in a spImager custom robotic platform (S&P Robotics Inc.). Cells were replicated for a second PCA selection step and incubated in the same manner. The last time point of the second PCA selection step was used for the data analysis as in previous studies using this method.
A separate DHFR-PCA screen was performed for the Sla1 SH3 shuffling experiment, with the same analysis as previously described. Three plates had no detectable level of background, which correspond to the second plate of the three Sla1 SH3 WT re-insertion controls. They were attributed the average of the background of the three first plates of the same baits. The threshold was also determined based on the distribution of the PCA scores of all PPIs and corresponds to the top 2.75% of all colonies detected in this experiment. […] Almost all true PPIs are from four replicates (96.2%). […]

B1: SLA1 WT¦WT¦WT (protein, UniProt P32790 1-1244, looked up)
Actin cytoskeleton-regulatory …: MTVFLGIYRAVYAYEPQTPEELAIQEDDLLYLLQKSDIDDWWTVKKRVIGSDSEEPVGLVPSTYIEEAPVLKKVRAIYDYEQVQNADEELTFHENDVFDVFDDKDADWLLVKSTVSNEFGFIPGNYVEPENGSTSKQEQAPAAAEAPAATPAAAPASAAVLPTNFLPPPQHNDRARMMQSKEDQAPDEDEEGPPPAMPARPTATTETTDATAAAVRSRTRLSYSDNDNDDEEDDYYYNSNSNNVGNHEYNTEYHSWNVTEIEGRKKKKAKLSIGNNKINFIPQKGTPHEWSIDKLVSYDNEKKHMFLEFVDPYRSLELHTGNTTTCEEIMNIIGEYKGASRDPGLREVEMASKSKKRGIVQYDFMAESQDELTIKSGDKVYILDDKKSKDWWMCQLVDSGKSGLVPAQFIEPVRDKKHTESTASGIIKSIKKNFTKSPSRSRSRSRSKSNANASWKDDELQNDVVGSAAGKRSRKSSLSSHKKNSSATKDFPNPKKSRLWVDRSGTFKVDAEFIGCAKGKIHLHKANGVKIAVAADKLSNEDLAYVEKITGFSLEKFKANDGSSSRGTDSRDSERERRRRLKEQEEKERDRRLKERELYELKKARELLDEERSRLQEKELPPIKPPRPTSTTSVPNTTSVPPAESSNNNNSSNKYDWFEFFLNCGVDVSNCQRYTINFDREQLTEDMMPDINNSMLRTLGLREGDIVRVMKHLDKKFGRENIASIPTNATGNMFSQPDGSLNVATSPETSLPQQLLPQTTSPAQTAPSTSAETDDAWTVKPASKSESNLLSKKSEFTGSMQDLLDLQPLEPKKAAASTPEPNLKDLEPVKTGGTTVPAAPVSSAPVSSAPAPLDPFKTGGNNILPLSTGFVMMPMITGGDMLPMQRTGGFVVPQTTFGMQSQVTGGILPVQKTGNGLIPISNTGGAMMPQTTFGAAATVLPLQKTGGGLIPIATTGGAQFPQTSFNVQGQQQLPTGSILPVQKTANGLISANTGVSMPTVQRTGGTMIPQTSFGVSQQLTGGAMMTQPQNTGSAMMPQTSFNAVPQITGGAMMPQTSFNALPQVTGGAMMPLQRTGGALNTFNTGGAMIPQTSFSSQAQNTGGFRPQSQFGLTLQKTGGIAPLNQNQFTGGAMNTLSTGGVLQQQQPQTMNTFNTGGVMQELQMMTTFNTGGAMQQPQMMNTFNTDGIMQQPQMMNTFNTGGAMQQPQQQALQNQPTGFGFGNGPQQSRQANIFNATASNPFGF
medrep = log2 median colony size normalized to plate background (PCA score) (prey YAL005C, 4 replicates): 4.576 | medrep = log2 median colony size normalized to plate background (PCA score) (prey YAL005C, 4 replicates, listed as SLA1 WT¦WT¦WT*): 5.708 | medrep = log2 median colony size normalized to plate background (PCA score) (prey YBL007C, 4 replicates): 3.858 | medrep = log2 median colony size normalized to plate background (PCA score) (prey YBL007C, 4 replicates, listed as SLA1 WT¦WT¦WT*): 4.787 | medrep = log2 median colony size normalized to plate background (PCA score) (prey YBR234C, 4 replicates): 4.193 | medrep = log2 median colony size normalized to plate background (PCA score) (prey YBR234C, 4 replicates, listed as SLA1 WT¦WT¦WT*): 5.208 | medrep = log2 median colony size normalized to plate background (PCA score) (prey YCR009C, 2 replicates): 2.175 | medrep = log2 median colony size normalized to plate background (PCA score) (prey YCR030C, 4 replicates): 2.158 | medrep = log2 median colony size normalized to plate background (PCA score) (prey YCR088W, 4 replicates): 3.971 | medrep = log2 median colony size normalized to plate background (PCA score) (prey YCR088W, 4 replicates, listed as SLA1 WT¦WT¦WT*): 4.931 | medrep = log2 median colony size normalized to plate background (PCA score) (prey YDL229W, 4 replicates): 4.158 | medrep = log2 median colony size normalized to plate background (PCA score) (prey YDL229W, 4 replicates, listed as SLA1 WT¦WT¦WT*): 5.378 | medrep = log2 median colony size normalized to plate background (PCA score) (prey YDR129C, 4 replicates): 3.756 | medrep = log2 median colony size normalized to plate background (PCA score) (prey YDR129C, 4 replicates, listed as SLA1 WT¦WT¦WT*): 4.737 | medrep = log2 median colony size normalized to plate background (PCA score) (prey YFL010C, 2 replicates): 3.147 | medrep = log2 median colony size normalized to plate background (PCA score) (prey YFR024C-A, 4 replicates): 3.943 | medrep = log2 median colony size normalized to plate background (PCA score) (prey YFR024C-A, 4 replicates, listed as SLA1 WT¦WT¦WT*): 4.815 | medrep = log2 median colony size normalized to plate background (PCA score) (prey YGL206C, 4 replicates): 3.77 | medrep = log2 median colony size normalized to plate background (PCA score) (prey YGL206C, 4 replicates, listed as SLA1 WT¦WT¦WT*): 4.526 | medrep = log2 median colony size normalized to plate background (PCA score) (prey YGR229C, 4 replicates): 2.045 | medrep = log2 median colony size normalized to plate background (PCA score) (prey YHR016C, 4 replicates): 3.008 | medrep = log2 median colony size normalized to plate background (PCA score) (prey YHR016C, 4 replicates, listed as SLA1 WT¦WT¦WT*): 3.247 | medrep = log2 median colony size normalized to plate background (PCA score) (prey YHR064C, 4 replicates): 3.59 | medrep = log2 median colony size normalized to plate background (PCA score) (prey YHR064C, 4 replicates, listed as SLA1 WT¦WT¦WT*): 4.449 | medrep = log2 median colony size normalized to plate background (PCA score) (prey YIL062C, 4 replicates): 3.558 | medrep = log2 median colony size normalized to plate background (PCA score) (prey YIL062C, 4 replicates, listed as SLA1 WT¦WT¦WT*): 4.388 | medrep = log2 median colony size normalized to plate background (PCA score) (prey YIR006C, 4 replicates): 3.754 | medrep = log2 median colony size normalized to plate background (PCA score) (prey YIR006C, 4 replicates, listed as SLA1 WT¦WT¦WT*): 4.634 | medrep = log2 median colony size normalized to plate background (PCA score) (prey YKL013C, 4 replicates): 3.269 | medrep = log2 median colony size normalized to plate background (PCA score) (prey YKL013C, 4 replicates, listed as SLA1 WT¦WT¦WT*): 3.776 | medrep = log2 median colony size normalized to plate background (PCA score) (prey YKL054C, 4 replicates): 2.47 | medrep = log2 median colony size normalized to plate background (PCA score) (prey YKL054C, 4 replicates, listed as SLA1 WT¦WT¦WT*): 3.124 | medrep = log2 median colony size normalized to plate background (PCA score) (prey YKL117W, 4 replicates): 3.846 | medrep = log2 median colony size normalized to plate background (PCA score) (prey YKL117W, 4 replicates, listed as SLA1 WT¦WT¦WT*): 4.725 | medrep = log2 median colony size normalized to plate background (PCA score) (prey YKL129C, 4 replicates): 2.117 | medrep = log2 median colony size normalized to plate background (PCA score) (prey YLR337C, 4 replicates): 3.738 | medrep = log2 median colony size normalized to plate background (PCA score) (prey YLR337C, 4 replicates, listed as SLA1 WT¦WT¦WT*): 4.734 | medrep = log2 median colony size normalized to plate background (PCA score) (prey YLR370C, 4 replicates): 3.494 | medrep = log2 median colony size normalized to plate background (PCA score) (prey YLR370C, 4 replicates, listed as SLA1 WT¦WT¦WT*): 4.461 | medrep = log2 median colony size normalized to plate background (PCA score) (prey YMR109W, 4 replicates): 2.836 | medrep = log2 median colony size normalized to plate background (PCA score) (prey YMR109W, 4 replicates, listed as SLA1 WT¦WT¦WT*): 3.116 | medrep = log2 median colony size normalized to plate background (PCA score) (prey YNL084C, 4 replicates): 3.76 | medrep = log2 median colony size normalized to plate background (PCA score) (prey YNL084C, 4 replicates, listed as SLA1 WT¦WT¦WT*): 4.641 | medrep = log2 median colony size normalized to plate background (PCA score) (prey YNL138W, 4 replicates): 2.038 | medrep = log2 median colony size normalized to plate background (PCA score) (prey YNL243W, 4 replicates): 3.418 | medrep = log2 median colony size normalized to plate background (PCA score) (prey YNL243W, 4 replicates, listed as SLA1 WT¦WT¦WT*): 4.392 | medrep = log2 median colony size normalized to plate background (PCA score) (prey YOR181W, 4 replicates): 3.933 | medrep = log2 median colony size normalized to plate background (PCA score) (prey YOR181W, 4 replicates, listed as SLA1 WT¦WT¦WT*): 4.903
